PMC10665427, “The heat shock protein LarA activates the Lon protease in response to proteotoxic stress” (Nature Communications, 2023)

B1: N-terminally 3xFLAG-tagged LarA [C. crescentus] / Lon, endogenous [C. crescentus (endogenous in WT cells)] (parent complex)
chain 1: MTPSTQHSRPLTSEAFAALGAPALVYVRPIKAAEILADAPEGVEDLDLSPDQTLYAVCRADGERLAVLIDRDTAIAAALAHELAPVSVH
chain 2: MSELRTLPVLPLRDIVVFPHMVVPLFVGRDKSVRALEEVMRGDKQILLVTQKNSADDDPAPGDIFEVGVLATVLQLLKLPDGTVKVLVEGKARAAVVSFTDQESYYEAQIGEVSEDDGAGPEAEALSRAVVEQFENYVKLNKKVPPEALASIPQIAEPGKLADSIAAHLSVKIGDKQNLLEIFDVVKRLEKVFALMEGEISVLQVEKKIRSRVKRQMEKTQREYYLNEQMKAIQRELGDPDDARDELIDLEKRIKKTKLSKEARTKAESELKKLRNMSPMSAESTVVRNYLDWLLSIPWGKAKTKKIDLVESEGILDADHYGLEKVKERILEYLAVQARTNSLKGPILCLVGPPGVGKTSLGKSIAKATGREFVRMSLGGVRDEAEIRGHRRTYIGSMPGKVVQSMKKAKTTNAFVLLDEIDKMGSDYRGDPASALLEVLDPSQNSTFGDHYLEVDYDLSQVMFVTTANSLNMPQPLLDRMEIIRIPGYTEDEKLEIAKRHILPKLAKDHGLKPAEFIVPDKAIRDLIRYYTREAGVRSLERELGALARKTVRDLAREKVASITIDDERLAKYAGVKKYRYGETDEVDQVGIVTGLAWTEFGGDILTIEAVKMPGKGRMQITGNLKDVMKESIAAANSYVRSRALQFGIKPPVFEKTDVHIHVPDGATPKDGPSAGIAMALAMVSVLTGIPIRKDIAMTGEITLRGRVTAIGGLKEKLLAALRSGVKTVLIPQENEKDLADVPQTVKDGLEIIPVSTVDEVLKHALTGPLTPVEWNEAEEPITTSAKKDDGDSDAMLTH

Variants of: B1
Assay: co-immunoprecipitation (α-FLAG IP, anti-Lon immunoblot quantified); WT cells, Pxyl-3xFLAG-larA variants induced one hour with xylose prior to cell lysis and IP; n = 3; parent: 4.5; read off a plot

response	Variant
~1.7 relative Lon level (vs VC = 1)	chain 1 MTPSTQHSRPLTSEAFAALGAPALVYVRPIKAAEILADAPEGVEDLDLSPDQTLYAVCRADGERLAVLIDRDTAIAAALAHELAPASAH
~1 relative Lon level (vs VC = 1)	chain 1 MTPSTQHSRPLTSEAFAALGAPALVYVRPIKAAEILADAPEGVEDLDLSPDQTLYAVCRADGERLAVLIDRDTAIAAALAHELAPVSDD
